Numbered stars: 1 amine (or outer) side, 2 acyl side, 3 side chain; on linkers, the order of the positions; unused ones are H or OH. Bridge positions count the residues as written; N and C are the ends. Ends that are not written are not given here. Phenylene(1,4-NHCOCH2)2 = O=C(C[*:1])Nc1ccc(NC(=O)C[*:2])cc1
Assays:
[1] = target: T1, CHIP (Homo sapiens, UniProt Q9UNE7); assay: Naive Library Presenter Screening (phage, NGS), CHIP; assay type: binding; conditions: for interaction data, BLANK: Blank = Media only
T1 construct: N-term truncated CHIP (also known as STUB1, Uniprot ID: Q9UNE7, residues 23-303); made in house; host or cells: E. coli BL21 CodonPlus
T1 sequence (Q9UNE7 23-303): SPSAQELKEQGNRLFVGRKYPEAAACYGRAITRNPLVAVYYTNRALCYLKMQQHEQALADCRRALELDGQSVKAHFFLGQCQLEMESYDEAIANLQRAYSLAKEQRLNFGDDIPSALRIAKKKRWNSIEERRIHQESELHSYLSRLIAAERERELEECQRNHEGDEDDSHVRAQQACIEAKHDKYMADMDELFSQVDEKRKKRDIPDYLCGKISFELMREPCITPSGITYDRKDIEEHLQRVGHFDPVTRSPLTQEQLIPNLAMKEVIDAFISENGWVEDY
Procedure: To conduct phage library screening, previously described procedures were utilized in accordance with the present disclosure.
Next-generation sequencing was performed as described in accordance with the present disclosure.
Hit ID and Clustering is performed according to a described procedure in accordance with the present disclosure.

[2] = target: T2, RNF31 UBA domain (Homo sapiens, UniProt Q96EP0); assay: Phage Library Screening with NGS, RNF31 UBA domain; assay type: binding; conditions: no competitor
T2 construct: RNF31 UBA domain protein (residues 480-639) with N-terminal Thioredoxin-TEV-6×his-yBBr-3C tags; Thioredoxin (N, cleaved yes); made in house; host or cells: E. coli BL21 (DE3) pLysS
T2 sequence (Q96EP0 480-639): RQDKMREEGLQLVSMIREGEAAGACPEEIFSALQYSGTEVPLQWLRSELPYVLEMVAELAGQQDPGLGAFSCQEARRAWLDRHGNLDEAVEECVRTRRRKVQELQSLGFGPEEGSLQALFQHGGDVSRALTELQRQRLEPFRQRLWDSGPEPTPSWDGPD

[3] = CHIP target concentration 10 nM
[4] = CHIP target concentration 30 nM
[5] = CHIP target concentration 100 nM
[6] = CHIP target concentration 300 nM
[7] = CHIP target concentration 1000 nM, first column
[8] = CHIP target concentration 1000 nM, second column
[9] = CHIP clusters (C83, C84), first column
[10] = CHIP clusters (C83, C84), second column
[11] = CHIP clusters (C83, C84), target concentration 10 nM
[12] = CHIP clusters (C83, C84), target concentration 30 nM
[13] = CHIP clusters (C83, C84), target concentration 100 nM
[14] = CHIP clusters (C83, C84), target concentration 300 nM
[15] = CHIP clusters (C83, C84), target concentration 1000 nM, first column
[16] = CHIP clusters (C83, C84), target concentration 1000 nM, second column

Sequence	interaction data at Target Concentration 10 [1, 3]	interaction data at Target Concentration 30 [1, 4]	interaction data at Target Concentration 100 [1, 5]	interaction data at Target Concentration 300 [1, 6]	interaction data at Target Concentration 1000 [1, 7]	interaction data at Target Concentration 1000 [1, 8]	interaction data, BLANK [1, 9]	interaction data, BLANK [1, 10]	interaction data at Target Concentration 10 [1, 11]	interaction data at Target Concentration 30 [1, 12]	interaction data at Target Concentration 100 [1, 13]	interaction data at Target Concentration 300 [1, 14]	interaction data at Target Concentration 1000 [1, 15]	interaction data at Target Concentration 1000 [1, 16]	phage screen NGS read-out at Target Concentration 10 [2]	phage screen NGS read-out at Target Concentration 30 [2]	phage screen NGS read-out at Target Concentration 100 [2]	phage screen NGS read-out at Target Concentration 300 [2]
PCWNAWMVCSV (linker 2-9 via Phenylene(1,4-NHCOCH2)2 (inferred))	2	44	334	474	690	691	–	–	–	–	–	–	–	–	–	–	–	–
ICYNAWVECE (linker 2-9 via Phenylene(1,4-NHCOCH2)2 (inferred))	1	2	10	21	19	23	–	–	–	–	–	–	–	–	–	–	–	–
DPAFWRCQFAAATCEHT (linker 7-14 via Phenylene(1,4-NHCOCH2)2 (inferred))	–	–	–	–	–	–	1	0	2	3	210	321	597	726	–	–	–	–
DPASQWCQRAASICWID (DPASQWCQRAASICWID-NH2; linker 7-14 via Phenylene(1,4-NHCOCH2)2 (inferred))	–	–	–	–	–	–	0	0	0	0	0	15	18	8	–	–	–	–
DPAEYACYHAASICNVD (linker 7-14 via Phenylene(1,4-NHCOCH2)2 (inferred))	–	–	–	–	–	–	0	0	0	0	54	61	31	91	–	–	–	–
DPAQNHCDSAAVFCYIL	–	–	–	–	–	–	–	–	–	–	–	–	–	–	0	0	1	8
DPAQQICLSAAVFCSIF	–	–	–	–	–	–	–	–	–	–	–	–	–	–	0	0	4	10
DPAEWLCQMAAHNCIYL	–	–	–	–	–	–	–	–	–	–	–	–	–	–	0	1	2	13

The remaining lines, values ahead:

interaction data at Target Concentration 10 [1, 3]	interaction data at Target Concentration 30 [1, 4]	interaction data at Target Concentration 100 [1, 5]	interaction data at Target Concentration 300 [1, 6]	interaction data at Target Concentration 1000 [1, 7]	interaction data at Target Concentration 1000 [1, 8]	interaction data, BLANK [1, 9]	interaction data, BLANK [1, 10]	interaction data at Target Concentration 10 [1, 11]	interaction data at Target Concentration 30 [1, 12]	interaction data at Target Concentration 100 [1, 13]	interaction data at Target Concentration 300 [1, 14]	interaction data at Target Concentration 1000 [1, 15]	interaction data at Target Concentration 1000 [1, 16]	phage screen NGS read-out at Target Concentration 10 [2]	phage screen NGS read-out at Target Concentration 30 [2]	phage screen NGS read-out at Target Concentration 100 [2]	phage screen NGS read-out at Target Concentration 300 [2]	Sequence
–	–	–	–	–	–	0	0	0	6	1	17	42	21	–	–	–	–	DPAFEQCQFAAAMCLHH (linker 7-14 via Phenylene(1,4-NHCOCH2)2 (inferred))
–	–	–	–	–	–	0	0	0	0	0	21	16	22	–	–	–	–	DPAVRWCAAAAAICMVD (linker 7-14 via Phenylene(1,4-NHCOCH2)2 (inferred); not fully specified (C-terminus))
–	–	–	–	–	–	0	0	0	0	0	48	79	17	–	–	–	–	DPAQYNCYFAANICTVD (DPAQYNCYFAANICTVD-NH2; linker 7-14 via Phenylene(1,4-NHCOCH2)2 (inferred))
19	142	542	632	701	581	–	–	–	–	–	–	–	–	–	–	–	–	PCWDAWMLCTD (linker 2-9 via Phenylene(1,4-NHCOCH2)2 (inferred))

From patent US20240376151A1, “STAPLED PEPTIDES AND METHODS THEREOF” (FOG PHARMACEUTICALS, INC., priority 2022, published 2024)
